“And” between values parts separate entries of the source, which are not always exact repeats. Equal values may be shown once.
Tests used:
[1] = biological target: Protein A (ligand of MabSelect resin, GE Healthcare) (UniProt P38507); experiment: dynamic binding capacity of MabSelect column at 5% breakthrough, load at 300 cm/hr
[2] = biological target: Protein A (ligand of MabSelect resin, GE Healthcare) (UniProt P38507); experiment: dynamic binding capacity of MabSelect column at 5% breakthrough, load at 300 cm/hr, average of Exp. 1 and 2
[3] = biological target: Protein A (ligand of MabSelect resin, GE Healthcare) (UniProt P38507); experiment: dynamic binding capacity of MabSelect column at 5% breakthrough, dual-flow rate load, average of Exp. 3 and 4
[4] = biological target: Protein A (ligand of MabSelect resin, GE Healthcare) (UniProt P38507); experiment: dynamic binding capacity of MabSelect column at 5% breakthrough, 300 cm/hr to 35 mg Ab/mL resin, then 150 cm/hr

## anti-IL-12 antibody (ABT-874)
[1]
  DBC at 5% BT (mg Ab/mL resin): 43.7 and 44.9
[2]
  DBC at 5% BT (mg Ab/mL resin): 44.3
[3]
  DBC at 5% BT (mg Ab/mL resin): 51.7
[4]
  DBC at 5% BT (mg Ab/mL resin): 51.6 and 51.7
